We go through four molecules from PMC11316719, “Unveiling the importance of the C-terminus in the sugar acid dehydratase of the IlvD/EDD superfamily” (Applied Microbiology and Biotechnology, 2024).

As usually defined, the Km is the substrate concentration at which the rate is half of its maximum. The term kcat denotes the maximal rate divided by the concentration of active sites. As a reminder, the kcat/Km is the turnover number divided by the Michaelis constant. As usually defined, the stoichiometry N is a count of units in the complex or per binding partner.

The target in data set [1] is T1, RlArDHT (L-arabinonate dehydratase from Rhizobium leguminosarum bv. trifolii) (Rhizobium leguminosarum, UniProt B5ZZ34, H579L).
T1 construct: gene araD; full length with N-terminal Strep-tag II (WSHPQFEK), codon-optimized, pBAT4, E. coli BL21(DE3); 579 residues without tag; [2Fe-2S] and Mg2+; homotetramer
Put plainly: X-ray crystal structure, […] Å, co-crystallized. Format: binding. To be noted: product analog; active site of chain D, coordinated to Mg2+; [2Fe-2S] present; pH 8.5, 20 °C.

Substrate in data set [2]: O=C(O)[C@H](O)[C@@H](O)[C@H](O)CO
Put plainly: purified protein. Format: biochemical, Rhizobium leguminosarum. To be noted: pH 8.0, 30 °C, 50 mM Tris-HCl, 10 mM MgCl2.

Substrate in data set [3]: O=C(O)[C@H](O)[C@@H](O)[C@@H](O)[C@H](O)CO
Put plainly: purified protein. Format: biochemical, Rhizobium leguminosarum. As to conditions: pH 8.0, 30 °C, 50 mM Tris-HCl, 10 mM MgCl2.

Substrate in data set [4]: C[C@@H](O)[C@H](O)[C@H](O)[C@@H](O)C(=O)O
In words: purified protein. Format: biochemical, Rhizobium leguminosarum. To be noted: pH 8.0, 30 °C, 50 mM Tris-HCl, 10 mM MgCl2.

Substrate in data set [5]: O=C(O)[C@H](O)[C@@H](O)[C@@H](O)CO
Put plainly: purified protein. To be noted: pH 8.0, 30 °C, 50 mM Tris-HCl, 10 mM MgCl2. Type of data set: biochemical, Rhizobium leguminosarum.

Substrate in data set [6]: O=C(O)[C@H](O)[C@@H](O)[C@H](O)[C@H](O)CO
In words: purified protein. Type of data set: biochemical, Rhizobium leguminosarum. To be noted: pH 8.0, 30 °C, 50 mM Tris-HCl, 10 mM MgCl2.

Data set [7] concerns the molecule itself. In words: crystal structure; H579L co-crystallised with 2-oxobutyrate, hanging-drop vapor diffusion at 20 °C; 14% (w/v) PEG 10000, 200 mM ammonium acetate, 100 mM Tris pH 8.5; molecular replacement with PDB 5J84.

As for `CCC(=O)C(=O)O` [2-oxobutyrate], the “X-ray crystal structure, 2.4 Å, co-crystallized” value in data set [1] is reported as 2-Oxobutyrate was refined inside the substrate-binding cavity in chain D of the H579L variant.

B1: RlArDHT (L-arabinonate dehydratase from Rhizobium leguminosarum bv. trifolii) (Rhizobium leguminosarum bv. trifolii WSM2304) (protein)
chain: MKKKAEWPRKLRSQEWYGGTSRDVIYHRGWLKNQGYPHDLFDGRPVIGILNTWSDMTPCNGHLRELAEKVKAGVWEAGGFPLEVPVFSASENTFRPTAMMYRNLAALAVEEAIRGQPMDGCVLLVGCDKTTPSLLMGAASCDLPSIVVTGGPMLNGYFRGERVGSGTHLWKFSEMVKAGEMTQAEFLEAEASMSRSSGTCNTMGTASTMASMAEALGMALSGNAAIPGVDSRRKVMAQLTGRRIVQMVKDDLKPSEIMTKQAFENAIRTNAAIGGSTNAVIHLLAIAGRVGIDLSLDDWDRCGRDVPTIVNLMPSGKYLMEEFFYAGGLPVVLKRLGEAGLLHKDALTVSGETVWDEVKDVVNWNEDVILPAEKALTSSGGIVVLRGNLAPKGAVLKPSAASPHLLVHKGRAVVFEDIDDYKAKINDDNLDIDENCIMVMKNCGPKGYPGMAEVGNMGLPPKVLKKGILDMVRISDARMSGTAYGTVVLHTSPEAAVGGPLAVVKNGDMIELDVPNRRLHLDISDEELARRLAEWQPNHDLPTSGYAFLHQQHVEGADTGADLDFLKGCRGNAVGKDSH
notes: full length with N-terminal Strep-tag II (WSHPQFEK), codon-optimized, pBAT4, E. coli BL21(DE3); 579 residues without tag; [2Fe-2S] and Mg2+; homotetramer
For the molecule B1, the Km was 1300 ± 300 µM in the data set “purified protein [2]”; 740 ± 150 µM in “purified protein [3]”; 240 ± 70 µM in the data set “purified protein [4]”; 1200 ± 200 µM in the data set “purified protein [5]”; 5700 ± 1500 µM in the data set “purified protein [6]”. The kcat came out at 0.413 ± 0.0217 s⁻¹ in “purified protein [2]”; 11.5 ± 0.5 s⁻¹ in the data set “purified protein [3]”; 17.5 ± 1 s⁻¹ in the data set “purified protein [4]”; 11.3 ± 0.5 s⁻¹ in the data set “purified protein [5]”; 6.5 ± 0.833 s⁻¹ in “purified protein [6]”. Also, the kcat/Km worked out at 317 ± 66.7 M⁻¹ s⁻¹ in the data set “purified protein [2]”; 15500 ± 2330 M⁻¹ s⁻¹ in the data set “purified protein [3]”; 73300 ± 18300 M⁻¹ s⁻¹ in the data set “purified protein [4]”; 9500 ± 1170 M⁻¹ s⁻¹ in “purified protein [5]”; 1130 ± 150 M⁻¹ s⁻¹ in the data set “purified protein [6]”.

B2: L-arabinonate dehydratase from Rhizobium leguminosarum bv. trifolii, variant H579L (enzyme, UniProt B5ZZ34 1-579, looked up)
chain: MKKKAEWPRKLRSQEWYGGTSRDVIYHRGWLKNQGYPHDLFDGRPVIGILNTWSDMTPCNGHLRELAEKVKAGVWEAGGFPLEVPVFSASENTFRPTAMMYRNLAALAVEEAIRGQPMDGCVLLVGCDKTTPSLLMGAASCDLPSIVVTGGPMLNGYFRGERVGSGTHLWKFSEMVKAGEMTQAEFLEAEASMSRSSGTCNTMGTASTMASMAEALGMALSGNAAIPGVDSRRKVMAQLTGRRIVQMVKDDLKPSEIMTKQAFENAIRTNAAIGGSTNAVIHLLAIAGRVGIDLSLDDWDRCGRDVPTIVNLMPSGKYLMEEFFYAGGLPVVLKRLGEAGLLHKDALTVSGETVWDEVKDVVNWNEDVILPAEKALTSSGGIVVLRGNLAPKGAVLKPSAASPHLLVHKGRAVVFEDIDDYKAKINDDNLDIDENCIMVMKNCGPKGYPGMAEVGNMGLPPKVLKKGILDMVRISDARMSGTAYGTVVLHTSPEAAVGGPLAVVKNGDMIELDVPNRRLHLDISDEELARRLAEWQPNHDLPTSGYAFLHQQHVEGADTGADLDFLKGCRGNAVGKDSL
modifications: KCX129 (6N-carboxylysine)
notes: L-arabinonate dehydratase (RlArDHT) from Rhizobium leguminosarum bv. trifolii, gene araD, GenBank KT260159, codon-optimised synthetic gene; His579 is the last C-terminal residue, changed to Leu; Holds a [2Fe-2S] cluster and Mg2+ in each chain; co-crystallised with 2-oxobutyrate (seen in chain D only); The introduction calls the same variant H588L, which may count the N-terminal tag residues; also …
For B2, the “stoichiometry N” value in data set [7] is 4.

B3: RlArDHT (L-arabinonate dehydratase from Rhizobium leguminosarum bv. trifolii) (Rhizobium leguminosarum bv. trifolii WSM2304; H579L) (protein)
chain: MKKKAEWPRKLRSQEWYGGTSRDVIYHRGWLKNQGYPHDLFDGRPVIGILNTWSDMTPCNGHLRELAEKVKAGVWEAGGFPLEVPVFSASENTFRPTAMMYRNLAALAVEEAIRGQPMDGCVLLVGCDKTTPSLLMGAASCDLPSIVVTGGPMLNGYFRGERVGSGTHLWKFSEMVKAGEMTQAEFLEAEASMSRSSGTCNTMGTASTMASMAEALGMALSGNAAIPGVDSRRKVMAQLTGRRIVQMVKDDLKPSEIMTKQAFENAIRTNAAIGGSTNAVIHLLAIAGRVGIDLSLDDWDRCGRDVPTIVNLMPSGKYLMEEFFYAGGLPVVLKRLGEAGLLHKDALTVSGETVWDEVKDVVNWNEDVILPAEKALTSSGGIVVLRGNLAPKGAVLKPSAASPHLLVHKGRAVVFEDIDDYKAKINDDNLDIDENCIMVMKNCGPKGYPGMAEVGNMGLPPKVLKKGILDMVRISDARMSGTAYGTVVLHTSPEAAVGGPLAVVKNGDMIELDVPNRRLHLDISDEELARRLAEWQPNHDLPTSGYAFLHQQHVEGADTGADLDFLKGCRGNAVGKDSL
notes: as for B1
Take B3: the Km in “purified protein [2]” turned out to be 1200 ± 200 µM; in “purified protein [3]” it was 900 ± 150 µM; in the data set “purified protein [4]” it was 820 ± 60 µM; in “purified protein [5]”, 1000 ± 200 µM; in “purified protein [6]” it was 5400 ± 900 µM. For the same molecule, the kcat in the data set “purified protein [2]” came to 0.107 ± 0.00333 s⁻¹; in “purified protein [3]”, 1.48 ± 0.0667 s⁻¹; in “purified protein [4]” it was 21.5 ± 0.5 s⁻¹; in “purified protein [5]”, 2 ± 0.0833 s⁻¹; in “purified protein [6]”, 0.667 ± 0.05 s⁻¹. The kcat/Km is 88.3 ± 11.7 M⁻¹ s⁻¹ in “purified protein [2]”; 1580 ± 183 M⁻¹ s⁻¹ in the data set “purified protein [3]”; 26200 ± 1330 M⁻¹ s⁻¹ in the data set “purified protein [4]”; 2000 ± 333 M⁻¹ s⁻¹ in the data set “purified protein [5]”; 125 ± 11.7 M⁻¹ s⁻¹ in the data set “purified protein [6]”.
